Target: xenopus Lgr4 ectodomain (residues 24-455) (xenopus)
Test: SEC + other: dynamic light scattering

For “xenopus Lgr4 ectodomain (residues 24-455) (domain or fragment)”, the stoichiometry N was 2.

Reference: paper PMC3777832
